Seven molecules from patent publication US20120171699A1 (Merck KGaA, published 2012) can be followed below.

As a reminder, the EC50 is the midpoint of the concentration-response curve. The term IC50 denotes the concentration that inhibits the measured activity by half.

In assay [1] the target is integrin β1 chain on cells (UniProt P05556). Description: live cell flow cytometry on M21-L, 10 µg/ml antibody; relative to second layer alone. (In general: Flow cytometry measures light scatter and fluorescence of single cells or particles in a stream.)
integrin β1 chain on cells, sequence (P05556 21-798 limits assumed): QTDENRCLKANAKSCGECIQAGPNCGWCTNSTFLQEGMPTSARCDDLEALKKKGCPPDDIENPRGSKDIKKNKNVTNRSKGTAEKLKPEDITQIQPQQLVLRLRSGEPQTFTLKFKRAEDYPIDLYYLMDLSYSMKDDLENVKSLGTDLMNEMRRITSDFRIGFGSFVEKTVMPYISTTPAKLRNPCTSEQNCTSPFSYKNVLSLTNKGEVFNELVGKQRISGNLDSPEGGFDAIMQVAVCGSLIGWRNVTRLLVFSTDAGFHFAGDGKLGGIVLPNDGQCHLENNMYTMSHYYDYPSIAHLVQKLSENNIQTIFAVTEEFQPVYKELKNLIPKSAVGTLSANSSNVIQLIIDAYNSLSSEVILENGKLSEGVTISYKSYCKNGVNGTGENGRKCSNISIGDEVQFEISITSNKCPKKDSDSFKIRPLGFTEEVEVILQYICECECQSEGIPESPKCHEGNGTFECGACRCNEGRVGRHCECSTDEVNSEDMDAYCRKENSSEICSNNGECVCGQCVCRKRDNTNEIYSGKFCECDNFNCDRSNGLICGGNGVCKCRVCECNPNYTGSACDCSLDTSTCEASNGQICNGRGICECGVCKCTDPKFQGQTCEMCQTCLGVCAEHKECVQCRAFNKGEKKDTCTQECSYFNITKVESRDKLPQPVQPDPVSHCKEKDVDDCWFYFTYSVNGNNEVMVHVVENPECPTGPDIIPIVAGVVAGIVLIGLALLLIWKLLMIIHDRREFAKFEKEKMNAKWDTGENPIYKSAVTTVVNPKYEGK
Assay [2] shares this target. Description: live cell flow cytometry on M24Met, 10 µg/ml antibody; relative to second layer alone.
Assay [3] has the same target. The experiment in a line: live cell flow cytometry on A549, 10 µg/ml antibody; relative to second layer alone.
Assay [4] has the same target. The experiment in a line: live cell flow cytometry on HT-29, 10 µg/ml antibody; relative to second layer alone.
For assay [5] the target is unchanged. The experiment in a line: live cell flow cytometry on M21-Gpiib, 10 µg/ml antibody; relative to second layer alone.
Assay [6] shares this target. Description: live cell flow cytometry on M21, 10 µg/ml antibody; relative to second layer alone.
For assay [7] the target is unchanged. Description: live cell flow cytometry on HUVEC, 10 µg/ml antibody; relative to second layer alone.
Assay [8] concerns the target T1, integrin αvβ5 on cells (human, UniProt P06756 31-1048; P18084 24-799).
T1 construct: whole, on cells; Endogenous integrin of live cells (FACS) or of FFPE cells and xenografts (IHC)
The experiment in a line: live cell flow cytometry on A549, 10 µg/ml antibody; relative to second layer alone.

Assay [9] addresses T1, integrin αvβ5 on cells. Description: live cell flow cytometry on HUVEC, 10 µg/ml antibody; relative to second layer alone.
Assay [10] addresses T1, integrin αvβ5 on cells. Description: live cell flow cytometry on HT-29, 10 µg/ml antibody; relative to second layer alone.
In assay [11] the target is T1, integrin αvβ5 on cells. Description: live cell flow cytometry on M24Met, 10 µg/ml antibody; relative to second layer alone.
The target in assay [12] is T1, integrin αvβ5 on cells. Description: live cell flow cytometry on M21, 10 µg/ml antibody; relative to second layer alone.
Assay [13] deals with T2, integrin αiibβ3 on M21-gpiib melanoma cells (UniProt P08514 32-1039; P05106 27-788).
T2 construct: whole, on cells
The experiment in a line: live cell flow cytometry on M21-Gpiib, 10 µg/ml antibody; relative to second layer alone.
Description: (§1) Cells in log growth were harvested using trypsin (0.5 μg/ml)/EDTA (0.2 μg/ml), washed in FACS buffer (PBS plus 0.9 mM CaCl₂; 0.5 mM MgCl₂; 0.5% w/v BSA), and incubated with anti-integrin antibodies (60 min; 4° C.; 10 μg/ml in FACS buffer). […] Cells were analyzed on a FACScan (Becton-Dickinson) and the mean intensity fluorescence (MIF) was normalized to the MIF of the negative control (cells stained with PI and secondary labeled antibody, without primary antibody).
(§2) The RabMabs were assessed in FACS compared to standard well characterized murine monoclonal antibodies.

The target in assay [14] is T3, recombinant human integrin αvβ5 extracellular domain (DTM-αvβ5) (human, UniProt P06756 31-992).
T3 construct: extracellular domain; Heterodimer made in High Five insect cells; also called Human αvβ5 ECD
The experiment in a line: ELISA, hybridoma supernatants on the recombinant αvβ5 extracellular domain (FIG. 10). On the technique in general: In an ELISA, binding on a coated surface is turned into a signal by an enzyme label.

The target in assay [15] is T4, full length human gpiibiiia purified from platelets (human, UniProt P08514 32-1039; P05106 27-788).
T4 construct: mature; Extracted from outdated human platelets with octylglucoside; also called intact αiibβ3; full length purified platelet gpiibiiia
Description: ELISA, integrin coated at 1 µg/ml, antibody serially diluted.
Description: (§3) Recombinant integrins (1 μg/ml) were coated on microtiter plates by adsorption (4° C.; 16 h) from coating buffer (150 mM NaCl; 1 mM CaCl₂; 1 mM MgCl₂; 10 μM MnCl₂; 50 mM Tris-Cl; pH 7.5). The plates were washed (wash buffer: 0.5% BSA; 0.05% Tween 20 in PBS), blocked (1 h; 4° C.; 5% BSA in PBS), and incubated with primary antibodies serially diluted in wash buffer (1 h; 37° C.). After washing, secondary detection antibody (goat-anti-rabbit HRP; 1:5000) was added (1 h; 37° C.), followed by washing and detection using tetramethyl-benzidine (100 μg/ml) in citrate-phosphate buffer (pH 5.0), development with sulphuric acid, and reading against a reagent blank at 450 nm.

The target of assay [16] is T5, recombinant human integrin αvβ3 extracellular domain (DTM-αvβ3) (human, UniProt P06756 31-992).
T5 construct: extracellular domain; Heterodimer made in High Five insect cells with baculovirus; also called Human αvβ3 ECD
The description is as above.
Description: as §3

Assay [17] addresses T3, recombinant human integrin αvβ5 …. Described as above.
Description: as §3
The target of assay [18] is T5, recombinant human integrin αvβ3 …. The experiment in a line: ELISA, hybridoma supernatants on recombinant αvβ3 against αvβ5 extracellular domains (FIG. 10).
Assay [19] deals with T4, full length human gpiibiiia purified …. The experiment in a line: ELISA, integrin coated at 1 µg/ml.
Description: as §3
Assay [20] concerns the target T5, recombinant human integrin αvβ3 …. The experiment in a line: ELISA, integrin coated at 1 µg/ml.
Description: as §3
For assay [21], the target named is T6, integrin αv chain on cells (human, UniProt P06756 31-1048).
T6 construct: whole, on cells; Endogenous αv of live cells (FACS) or FFPE cells and xenografts (IHC); also called Human αv; αv-integrin
Description: live cell flow cytometry on M24Met, 10 µg/ml antibody; relative to second layer alone.
Description: as §1, §2

Assay [22] concerns the target T6, integrin αv chain on cells. Description: live cell flow cytometry on M21, 10 µg/ml antibody; relative to second layer alone.
Description: as §1, §2
The target in assay [23] is T7, integrin αvβ3 on cells (human, UniProt P06756 31-1048; P05106 27-788).
T7 construct: whole, on cells; Endogenous integrin of live cells (FACS) or of formalin fixed paraffin embedded cells and xenografts (IHC); the cell line is named under assay; also called αvβ3 complex
The experiment in a line: live cell flow cytometry on HUVEC, 10 µg/ml antibody; relative to second layer alone.
Description: as §1, §2

For assay [24], the target named is T7, integrin αvβ3 on cells. Description: live cell flow cytometry on M24Met, 10 µg/ml antibody; relative to second layer alone.
Description: as §1, §2
For assay [25], the target named is T7, integrin αvβ3 on cells. The experiment in a line: live cell flow cytometry on M21, 10 µg/ml antibody; relative to second layer alone.
Description: as §1, §2
Assay [26] concerns the target recombinant human integrin αvβ6 extracellular domain (DTM-αvβ6) (human) (UniProt P18564). Description: ELISA, integrin coated at 1 µg/ml, antibody serially diluted.
In assay [27] the target is T6, integrin αv chain on cells. Description: live cell flow cytometry on HUVEC, 10 µg/ml antibody; relative to second layer alone.
Description: as §1, §2
Assay [28] concerns the target T8, recombinant human integrin αvβ8 extracellular domain (DTM-αvβ8) (human, UniProt P06756 31-992).
T8 construct: extracellular domain; Heterodimer made in High Five insect cells; also called Human αvβ8 ECD
The experiment in a line: ELISA, integrin coated at 1 µg/ml, antibody serially diluted.
Description: as §3

Assay [29] addresses T2, integrin αiibβ3 on M21-gpiib melanoma …. The experiment in a line: live cell flow cytometry on M21-gpiib melanoma cells.
Description: as §1, §2

Take P4C10 (antibody): the rMIF came out at 12.1 in [1]; 14 in [2]; 7.5 in assay [3]; 14.5 in assay [4]; 10.8 in [5]; 7.2 in assay [6]. In [7], this molecule showed a rMIF of 38.9.

P1F6 (antibody): the rMIF in the assay with integrin αvβ5 on cells [8] amounted to 3.6; in the assay with integrin αvβ5 on cells [9], 2.7; with integrin αvβ5 on cells [10], 3.2; with integrin αvβ5 on cells [11], 3.8; with integrin αvβ5 on cells [12] it was 3.8.

B1: EM09902 (antibody, V domains shown)
VH: QEQLEESGGGLVQPEGSLTLTCTVSGFPLRNVWISWVRQAPGKGLEWIGCIYTGRDWPYYASWAKGRFTISKSSSTTVTLQMTSLTATDTATYFCARIVYGGAGYRLWGPGTLVTVSS
VL: ALVMTQTPPSVEAAVGGTVTINCQASQDIGSDLAWYQQKPGQPPKLLIYSASSLASGVPSRFKASGSGTQFTLTISDVQCDDAATYSCAGYKSYSDDGHGFGGGTEVVVKG
notes: Rabbit monoclonal; Hybridoma and recombinant forms are kept as one molecule; also called E3536-99-1; E3536-99-2
For B1, the rMIF in [13] was found to be 1.9; in the assay with integrin αvβ5 on cells [9], 33.9; with integrin αvβ5 on cells [11], 40.1; with integrin αvβ5 on cells [12] it was 7.2. Also, in assay [14], the EC50 amounted to 0.05 nM. Moreover, the IC50 in assay [15] was around 0.4 µg/mL; in assay [16], around 450 ng/mL; in [17], 5.6 ng/mL. In addition, the “factor in apparent Kd, αvβ5 over αvβ3” value in [18] is above 100 fold. Further, the “cross-reactivity, fold in IC50 against the immunogen” value in assay [19] and in assay [20] was around 100 fold in each case.

B2: 17E6 (antibody, V domains shown)
VH: QVQLQQSGAELAEPGASVKMSCKASGYTFSSFWMHWVKQRPGQGLEWIGYINPRSGYTECNEIFRDKATMTADTSSSTAYMQLSGLTSEDSAVYYCASFLGRGAMDYWGQGTSVTVSS
VL: DIQMTQTTSSLSASLGDRVIISCRASQDISNYLSWYQQKPDGTVKLLIFYTSKLHSGVPSRFSGSGSGTDYSLTISNLDQEDIATYFCQQGNTFPYTFGGGTKVEMR
Regarding B2, the rMIF turned out to be 7.8 in [21] and 9.3 in assay [22].

B3: LM609 (antibody, V domains shown)
VH: EVQLVESGGGLVKPGRSLRLSCAASGFAFSSYDMSWVRQIPEKRLEWVAKVSSGGGSTYYLDTVQGRFTISRDNAKNTLYLQMSSLNSEDTAMYYCARHNYGSFAYWGQGTLVTVSA
VL: DIVLTQSPATLSVTPGDSVSLSCQASQSISNHLHWYQQKSHESPRLLIKYRSQSISGIPSRFSGSGSGTDFALSINSVETEDFGMYFCQQSGSWPHTFGGGTKLEIK
B3: the rMIF with integrin αvβ3 on cells [23] came out at 10.7; with integrin αvβ3 on cells [24], 4.9; with integrin αvβ3 on cells [25], 9.1.

B4: EM01309 (antibody, V domains shown)
VH: QSVEESGGRLVTPGTSLTLTCTVSGIDLTSNSLSWVRQAPGKGLEWIGAISSRATTYFAAWAKGRFTISRTSTTVDLRITSLTASDTATYFCGKFNLWGQGTLVTVSS
VL: AQVLTQTPSSVSAAVGGTVTINCQASQSVASNNALAWFQQKPGQPPKLLIYYASTLASGVPSRFKGSGSGTQFTLTISDLECADAATYYCLGGYDCRGTDCNVFGGGTEVVVKG
notes: Rabbit IgG monoclonal; Hybridoma and recombinant forms are kept as one molecule; also called E3875-013-9; E3875-13-9
As to B4, the half-maximal inhibitory concentration (IC50) in [26] is 4.9 ng/mL; in assay [16], 4.7 ng/mL; in assay [28] it was 4.1 ng/mL; in assay [17], 5.6 ng/mL. Further, the rMIF came out at 1 in assay [13], 28.8 in assay [27], 2.5 in assay [21] and 1.3 in assay [22]. Also, the binding result in assay [29] was “no binding (tested: 10 µg/ml)”.

B5: EM22703 (antibody, V domains shown)
VH: QSVKESEGGLFKPTDTLILTCTVSGFSLSSYGVSWVRQAPGNGLEYIGSISTTGITYYASWAKSRSTITRNTNLYTVTLKMTGLTAADTATYFCARGFPGHLRKPSDIWGPGTLVTVSA
VL: AQVLTQTPSSVSAAVGGTVSISCQSSESVYADIALSWFQQKPGQPPKLLIYGASTLASGVPSRFSGSGSGTEFTLTISDVQCDAAATYYCAGDYGAGTEPNLFGGGTEVVVSG
notes: Rabbit monoclonal; Hybridoma and recombinant forms are kept as one molecule
With B5, the rMIF amounted to 56 in assay [13], 12.4 in the assay with integrin αvβ3 on cells [23], 8.1 in the assay with integrin αvβ3 on cells [24] and 17.6 with integrin αvβ3 on cells [25]. Moreover, the IC50 in assay [15] is 0.00085 µg/mL; in [16], 1.4 ng/mL.
